# Measured values as given in US20240360189A1.
# Target: SLAMF7 (CS1, CD319, CRACC) on NK92MI cells (human) (UniProt Q9NQ25)
# Assay: flow cytometry, cross-linking of violet-stained NK92MI cells with PKH26-stained P. aeruginosa RP73; controls without molecule 0.29 and 0.31
binder,measurement,value
"BiKE B′: ELO scFv [(RTX VL 10-first amino-acids/ELO (VL-VH)] anti-SLAMF7.C4bpβ.scFv (VL-VH) anti-Psl.FLAG (bispecific antibody, not shown: small tags and cut ends, Covalent homodimer through the cysteines of the C4bp beta fragment; one chain is given.) RSQIVLSQSPAILSASVGDRVTITCKASQDVGIAVAWYQQKPGKVPKLLIYWASTRHTGVPDRFSGSGSGTDFTLTISSLQPEDVATYYCQQYSSYPYTFGQGTKVEIKGGSSRSSSSGGGGSGGGGEVQLVESGGGLVQPGGSLRLSCAASGFDFSRYWMSWVRQAPGKGLEWIGEINPDSSTINYAPSLKDKFIISRDNAKNSLYLQMNSLRAEDTAVYYCARPDGNYWYFDVWGQGTLVTVSSASGGGGSSGGGGSSGGGGSIQEAPKPECEKALLAFQESKNLCEAMENFMQQLKESGMTMEELKYSLELKKAELKAKLLSGGGGSSGGGGSSGGGGSDIQLTQSPSSLSASVGDRVTITCRASQSIRSHLNWYQQKPGKAPKLLIYGASNLQSGVPSRFSGSGSGTDFTLTISSLQPEDFATYYCQQSTGAWNWFGCGTKVEIKGGGGSGGGGSGGGGSGGGGSQVQLQESGPGLVKPSETLSLTCTVSGGSISPYYWTWIRQPPGKCLELIGYIHSSGYTDYNPSLKSRVTISGDTSKKQFSLKLSSVTAADTAVYYCARADWDRLRALDIWGQGTMVTVSS",% colocalization (violet+PKH26+),1.85%
